Assay results: article PMC3484103

Target: GST fused to Las17 fragment P8-12 (GST-P8-12) (S. cerevisiae) (UniProt Q12446)
Assay: pull-down

Sequence of UniProt Q12446 (Q12446 300-404): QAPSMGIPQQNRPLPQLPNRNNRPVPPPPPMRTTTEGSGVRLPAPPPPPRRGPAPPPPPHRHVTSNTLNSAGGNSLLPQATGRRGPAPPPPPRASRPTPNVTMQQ

Kd: 56 nM
Substance: hexahistidine-tagged Sla1 fragment spanning the SH3 domains 1 and 2 (His-Sla1-SH3-1-2) (domain or fragment)
